# From article PMC4195775 (The EMBO Journal, 2014)
# Ends that are not written are not given here.
# B1: GST-NT (recombinant GST-fused girdin NT) (domain or fragment, human, UniProt Q3V6T2 1-256, looked up)
# chain: MENEIFTPLLEQFMTSPLVTWVKTFGPLAAGNGTNLDEYVALVDGVFLNQVMLQINPKLESQRVNKKVNNDASLRMHNLSILVRQIKFYYQETLQQLIMMSLPNVLIIGKNPFSEQGTEEVKKLLLLLLGCAVQCQKKEEFIERIQGLDFDTKAAVAAHIQEVTHNQENVFDLQWMEVTDMSQEDIEPLLKNMALHLKRLIDERDEHSETIIELSEERDGLHFLPHASSSAQSPCGSPGMKRTESRQHLSVELADA
# Assays:
# [1] = target: EGFRc-His (EGFR cytoplasmic domain, 669-1210) (UniProt P00533 669-1210); experiment: pull-down
# [2] = target: B1; experiment: in vitro binding assay
Binder,binding result [1],binding result [2]
B1,binds,–
"KLLMIIHDRREFAKFEKEKMNAKWDTGENPIYKSAVTTVVNPKYEGK (domain or fragment, UniProt P05556 752-798, looked up, also: His tag, position and length not given here) [ITGB1c-His (integrin β1 cytoplasmic domain, 752-798)]",–,binds
